Test results published in patent US20210032312A1 (Janssen / Centocor, published 2021).

How the values were obtained:
In house human CD8A-Fc = molecular target: T1, In house human CD8A-Fc (human, UniProt P01732 22-182, limits assumed); assay: SPR (ProteOn), captured hCD8A-Fc
T1 construct: Captured on goat anti-human Fc on a ProteOn GLC chip; also called hCD8A-Fc; recombinant human CD8 alpha; not shown: linker with flag (and polyhistidine) tag and Fc of human IgG1
Description: Purified anti-CD8A FN3 domains were subjected to off-rate analysis using a Proteon surface plasmon resonance instrument in order to pick clones with the slowest off-rates for further characterization.
The immobilized GAH-Fc IgG densities averaged about 6000 Response Units (Ru) with less than 1% variation among different channels. In house human CD8A-Fc was captured in vertical orientation at 3 different ligand densities, 10, 5, 2.5 μg/ml for 5 minutes at 30 ul/minute flowrate. All FN3 domains were normalized to a 3 μM concentration, and tested for binding in horizontal orientation. All 6 analyte channels were used for FN3 domains to maximize the screening throughput. The dissociation phase was monitored for 15 minutes at a flow rate of 100 μl/min using PBST as running buffer. […] Data analyses were performed using Bio-Rad ProteOn Manager software (version 3.1.0.6). Raw data were double referenced by subtraction of the interspot (empty chip surface, no protein immobilized or captured) signals to correct the non-specific binding of the FN3 domain to the pre-coated GAH-Fc IgG surface, followed by a double correction using empty channel L6 where no hCD8A-Fc was captured. The processed binding data were locally fit to a 1:1 simple Langmuir binding model to extract the koff for each FN3 domain binding to captured hCD8A-Fc.

[1] = molecular target: T2, cynomolgus monkey CD8A on primary cynomolgus monkey CD8+ T cells (cynomolgus monkey, UniProt P01732 23-235 (human entry)); assay: flow cytometry, cyno CD8+ T cells, 2 uM FN3
T2 construct: also called Cyno CD8alpha
T2 sequence (P01732 other isoform, or with tags, fused parts or gaps limits assumed): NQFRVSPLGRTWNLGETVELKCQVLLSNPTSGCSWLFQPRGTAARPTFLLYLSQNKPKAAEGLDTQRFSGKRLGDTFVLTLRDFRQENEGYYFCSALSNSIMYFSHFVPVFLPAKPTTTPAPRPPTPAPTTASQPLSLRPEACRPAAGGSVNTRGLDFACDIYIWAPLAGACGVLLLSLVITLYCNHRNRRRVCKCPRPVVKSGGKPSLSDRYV
Description: (§1) Binding of the 190 ELISA hits to human and cynomologous monkey primary CD8 T cells was assessed by flow cytometry. The FN3 domain molecules were diluted to 2 μM and 0.2 μM in PBS and incubated with human or cynomologous monkey CD8+ T cells in 96-well format. After 1 hour at 4 C, the cells were washed once with PBS and then resuspended with an anti-FN3 domain antibody (PAB25) solution. Following this incubation, the cells were washed twice with PBS and a PE conjugated secondary antibody and a viability dye were added. Finally, cells were washed and resuspended in PBS for flow cytometric analysis using a BD Canto Instrument. Cells were gating on live cells and median fluorescence intensity of the bound Centyrins (PE channel) was calculated using Cytobank software.

[2] = molecular target: T3, human CD8 alpha (CD8A) on primary human CD8+ T cells (human, UniProt P01732 22-235); assay: flow cytometry, human CD8+ T cells, 2 uM FN3
T3 construct: whole, on cells; also called hCD8A
T3 sequence (P01732 22-235): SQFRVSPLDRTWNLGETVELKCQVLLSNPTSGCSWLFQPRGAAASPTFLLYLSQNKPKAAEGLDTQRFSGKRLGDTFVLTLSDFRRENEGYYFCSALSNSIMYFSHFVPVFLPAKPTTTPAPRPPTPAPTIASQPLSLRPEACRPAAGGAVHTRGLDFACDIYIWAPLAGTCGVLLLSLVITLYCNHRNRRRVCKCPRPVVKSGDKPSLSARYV
Description: as §1

[3] = molecular target: T2, cynomolgus monkey CD8A on primary …; assay: flow cytometry, cyno CD8+ T cells, 0.2 uM FN3
Description: as §1

[4] = molecular target: T3, human CD8 alpha (CD8A) on primary human …; assay: flow cytometry, human CD8+ T cells, 0.2 uM FN3
Description: as §1

T1 sequence (P01732 22-182 limits assumed): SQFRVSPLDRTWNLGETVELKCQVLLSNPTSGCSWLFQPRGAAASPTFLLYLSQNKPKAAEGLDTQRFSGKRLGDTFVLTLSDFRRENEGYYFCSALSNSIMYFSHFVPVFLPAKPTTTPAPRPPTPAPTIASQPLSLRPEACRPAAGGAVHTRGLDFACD

Binder	koff (In house human CD8A-Fc) [s⁻¹]	Cyno T-cell Binding 2 uM (MFI) [1] [MFI]	Human T-cell Binding 2 uM (MFI) [2] [MFI]	Cyno T-cell Binding 0.2 uM (MFI) [3] [MFI]	Human T-cell Binding 0.2 uM (MFI) [4] [MFI]
P282AR9P1356_H1 (designed binder, FN3 domain) LPAPKNLVVSRVTEDSARLSWIPNPSSFDSFLIQYQESEKVGEAIVLTVPGSERSYDLTGLKPGTEYTVSIYGVDVVFDPVGFPSHSNPLSAIFTT	0.000114	46300	14700	5700	3230
P283AR9P1362_D7 (designed binder, FN3 domain) LPAPKNLVVSRVTEDSARLSWVKRATSFDSFLIQYQESEKVGEAIVLTVPGSERSYDLTGLKPGTEYTVSIYGVDVKYDIDSRPISSNPLSAIFTT	0.000118	27500	17300	4850	3350
P282AR9P1356_H6 (designed binder, FN3 domain) LPAPKNLVVSRVTEDSARLSWRKRANSFDSFLIQYQESEKVGEAIVLTVPGSERSYDLTGLKPGTEYTVSIYGVHVEYDQHGRPRWSNPLSAIFTT	8.08e-05	14400	6650	3200	2640
P282AR9P1356_B9 (designed binder, FN3 domain) LPAPKNLVVSRVTEDSARLSWPEGDRPFFDSFLIQYQESEKVGEAIVLTVPGSERSYDLTGLKPGTEYTVSIYGVDVKWEGNRPVASNPLSAIFTT	0.000295	36400	17200	5440	3670
P282AR9P1356_A10 (designed binder, FN3 domain) LPAPKNLVVSRVTEDSARLSWHTATNSFDSFLIQYQESEKVGEAIVLTVPGSERSYDLTGLKPGTEYTVSIYGVDVDYNPTGRPVSSNPLSAIFTT	0.000291	10600	4260	3120	2090
P282AR9P1356_D3 (designed binder, FN3 domain) LPAPKNLVVSRVTEDSARLSWTRHETSFDSFLIQYRESEKVGEAIVLTVPGSERSYDLTGLKPGTEYTVSIYGVVVEYDAAGNPKYSNPLSAIFTT	0.000158	13900	5960	3360	2400
P283AR9P1362_G3 (designed binder, FN3 domain) LPAPKNLVVSRVTEDSARLSWVKRATSFDSFLIQYQESEKVGEAIVLTVPGSERSYDLTGLKPGTEYTVSIYGVDVKWEGNRPVASNPLSAIFTT	9.45e-05	35300	18500	9200	4310
P282AR9P1356_A4 (designed binder, FN3 domain) LPAPKNLVVSRVTEDSARLSWVKRPNSFDSFLIQYQESEKVGEAIVLTVPGSERSYDLTGLKPGTEYTVSIYGVDVVDYEGRPRWSNPLSAIFTT	8.61e-05	26400	16700	8630	4380
P282AR9P1356_A6 (designed binder, FN3 domain) LPAPKNLVVSRVTEDSARLSWSKTDSSFDSFLIQYQESEKVGEAIVLTVPGSERSYDLTGLKPGTEYTVSIYGVDVVYIEGNPVFSNPLSAIFTT	9.73e-05	31400	10800	5780	3440

More lines, now with the values ahead:

koff (In house human CD8A-Fc) [s⁻¹]	Cyno T-cell Binding 2 uM (MFI) [1] [MFI]	Human T-cell Binding 2 uM (MFI) [2] [MFI]	Cyno T-cell Binding 0.2 uM (MFI) [3] [MFI]	Human T-cell Binding 0.2 uM (MFI) [4] [MFI]	Binder
0.000125	34600	9500	6050	3480	P283AR9P1362_D3 (designed binder, FN3 domain) LPAPKNLVVSRVTEDSARLSWPVESNAFDSFLIQYQESEKVGEAIVLTVPGSERSYDLTGLKPGTEYTVSIYGVDVEYDQHGRPRWSNPLSAIFTT
0.00153	17300	5540	3530	1400	P283AR9P1362_A3 (designed binder, FN3 domain) LPAPKNLVVSRVTEDSARLSWKRIDSPFDSFLIQYQESEKVGEAIVLTVPGSERSYDLTGLKPGTEYTVSIYGVDVKYDIDSRPISSNPLSAIFTT
2.64e-05	33500	13700	7720	3660	P283AR9P1362_D6 (designed binder, FN3 domain) LPAPKNLVVSRVTEDSARLSWAKRPGAFDSFLIQYQESEKVGEAIVLTVPGSERSYDLTGLKPGTEYTVSIYGVDVKYDIDSRPISSNPLSAIFTT
0.000327	15900	6180	2840	2010	P283AR9P1362_E9 (designed binder, FN3 domain) LPAPKNLVVSRVTEDSARLSWVPSPWGFDSFLIQYQESEKVGEAIVLTVPGSERSYDLTGLKPGTEYTVSIYGVDVKYDIDSRPISSNPLSAIFTT
0.000302	21200	6310	4400	2540	P283AR9P1362_A4 (designed binder, FN3 domain) LPAPKNLVVSRVTEDSARLSWIGHDSGFDSFLIQYQESEKVGEAIVLTVPGSERSYDLTGLKPGTEYTVSIYGVDVKYDIDSRPISSNPLSAIFTT
9.94e-05	14800	7060	3830	2620	P283AR9P1362_C12 (designed binder, FN3 domain) LPAPKNLVVSRVTEDSARLSWAKNLHSFDSFLIQYQESEKVGEAIVLTVPGSERSYDLTGLKPGTEYTVSIYGVDVKYDIDSRPISSNPLSAIFTT
0.000648	12900	5740	2270	1580	P283AR9P1362_B8 (designed binder, FN3 domain) LPAPKNLVVSRVTEDSARLSWWTSPLPFDSFLIQYQESEKVGEAIVLTVPGSERSYDLTGLKPGTEYTVSIYGVDVKYDIDSRPISSNPLSAIFTT
9.72e-05	25700	9830	4100	2980	P283AR9P1362_D4 (designed binder, FN3 domain) LPAPKNLVVSRVTEDSARLSWVREHDSFDSFLIQYQESEKVGEAIVLTVPGSERSYDLTGLKPGTEYTVSIYGVDVKYDIDSRPISSNPLSAIFTT
0.00211	26400	9620	5520	1370	P283AR9P1362_F2 (designed binder, FN3 domain) LPAPKNLVVSRVTEDSARLSWRKKDHPFDSFLIQYQESEKVGEAIVLTVPGSERSYDLTGLKPGTEYTVSIYGVDVKYDIDSRPISSNPLSAIFTT
0.000112	23700	9200	4570	3170	P283AR9P1362_F8 (designed binder, FN3 domain) LPAPKNLVVSRVTEDSARLSWGYYHGHFDSFLIQYQESEKVGEAIVLTVPGSERSYDLTGLKPGTEYTVSIYGVDVKWEGNRPVASNPLSAIFTT
0.000186	19700	11000	5520	2790	P283AR9P1362_C7 (designed binder, FN3 domain) LPAPKNLVVSRVTEDSARLSWVKRATSFDSFLIQYQESEKVGEAIVLTVPGSERSYDLTGLKPGTEYTVSIYGVDVRYNEGQPIWSNPLSAIFTT
